For series [1], the target named is T1, MCU, Q8NE86.
T1 chain: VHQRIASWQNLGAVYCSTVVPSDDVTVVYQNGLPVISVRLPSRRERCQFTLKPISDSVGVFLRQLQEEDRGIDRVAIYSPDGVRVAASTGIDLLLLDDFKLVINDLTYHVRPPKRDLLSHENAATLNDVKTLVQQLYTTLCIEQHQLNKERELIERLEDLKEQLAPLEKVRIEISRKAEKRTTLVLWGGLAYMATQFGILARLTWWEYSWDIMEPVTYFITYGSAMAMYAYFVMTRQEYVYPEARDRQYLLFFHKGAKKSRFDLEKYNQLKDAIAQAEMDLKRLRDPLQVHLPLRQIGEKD
As to the kind of experiment: co-IP. The note with it: remark: other sources report otherwise.

Series [2] concerns the molecule itself. As to the kind of experiment: SEC. On the technique in general: Size exclusion chromatography separates by hydrodynamic size, large species first.

B1: disulfide-connected MICU1-MICU1 homodimer (MICU1-1D), Q9BPX6 34-476 (complex)
chain: MMVAFLGASAVTASTGLLWKRAHAESPPCVDNLKSDIGDKGKNKDEGDVCNHEKKTADLAPHPEEKKKKRSGFRDRKVMEYENRIRAYSTPDKIFRYFATLKVISEPGEAEVFMTPEDFVRSITPNEKQPEHLGLDQYIIKRFDGKKISQEREKFADEGSIFYTLGECGLISFSDYIFLTTVLSTPQRNFEIAFKMFDLNGDGEVDMEEFEQVQSIIRSQTSMGMRHRDRPTTGNTLKSGLCSALTTYFFGADLKGKLTIKNFLEFQRKLQHDVLKLEFERHDPVDGRITERQFGGMLLAYSGVQSKKLTAMQRQLKKHFKEGKGLTFQEVENFFTFLKNINDVDTALSFYHMAGASLDKVTMQQVARTVAKVELSDHVCDVVFALFDCDGNGELSNKEFVSIMKQRLMRGLEKPKDMGFTRLMQAMWKCAQETAWDFALPKQ
modifications: here or on the partner: intersubunit disulfide through C463
With B1, the fold co-precipitated with MCU, against MICU1-2D in series [1] came out at 2 fold.

B2: purified MBP-fused human MICU1 (MICU1-1ND) (natural protein, UniProt Q9BPX6 34-476, looked up)
chain: B1 chain
As a reminder, the stoichiometry N is the number of molecules, sites or subunits per partner or assembly. B2: the “stoichiometry N” value in series [2] worked out at 2.

B3: purified human MICU2 (MICU2-2ND) (natural protein, UniProt Q8IYU8 23-434, looked up)
chain: AVSRQAVRSPGPLAAAVAGAALAGAGAAWHHSRVSVAARDGSFTVSAQKNVEHGIIYIGKPSLRKQRFMQFSSLEHEGEYYMTPRDFLFSVMFEQMERKTSVKKLTKKDIEDTLSGIQTAGCGSTFFRDLGDKGLISYTEYLFLLTILTKPHSGFHVAFKMLDTDGNEMIEKREFFKLQKIISKQDDLMTVKTNETGYQEAIVKEPEINTTLQMRFFGKRGQRKLHYKEFRRFMENLQTEIQEMEFLQFSKGLSFMRKEDFAEWLLFFTNTENKDIYWKNVREKLSAGESISLDEFKSFCHFTTHLEDFAIAMQMFSLAHRPVRLAEFKRAVKVATGQELSNNILDTVFKIFDLDGDECLSHEEFLGVLKNRMHRGLWVPQHQSIQEYWKCVKKESIKGVKEVWKQAGKGLF
As for B3, the “stoichiometry N” value in series [2] worked out at 2.

The values above are taken from paper PMC9557913 (Molecular cell, 2022).
